Results from patent US20140087995A1 (published 2014).
Numbered stars: 1 amine (or outer) side, 2 acyl side, 3 side chain; on linkers, the order of the positions; unused ones are H or OH. Bridge positions count the residues as written; N and C are the ends. Side chains are listed from the residue outwards. Ends that are not written are not given here. * marks the point of attachment. C20 diacid = O=C(O)CCCCCCCCCCCCCCCCCCC(=O)*; γGlu = O=C(O)[C@H](CCC(=O)[*:2])N[*:1]; AEEA = NCCOCCOCC(=O)O

T1: human amylin receptor (amylin 3(a) receptor: human calcitonin receptor with RAMP-3) (human, UniProt P30988 25-474; O60896 24-148)
T1 construct: whole, on cells; also called hAmylin-R; hAmylinR
T1 sequence (looked up) 1: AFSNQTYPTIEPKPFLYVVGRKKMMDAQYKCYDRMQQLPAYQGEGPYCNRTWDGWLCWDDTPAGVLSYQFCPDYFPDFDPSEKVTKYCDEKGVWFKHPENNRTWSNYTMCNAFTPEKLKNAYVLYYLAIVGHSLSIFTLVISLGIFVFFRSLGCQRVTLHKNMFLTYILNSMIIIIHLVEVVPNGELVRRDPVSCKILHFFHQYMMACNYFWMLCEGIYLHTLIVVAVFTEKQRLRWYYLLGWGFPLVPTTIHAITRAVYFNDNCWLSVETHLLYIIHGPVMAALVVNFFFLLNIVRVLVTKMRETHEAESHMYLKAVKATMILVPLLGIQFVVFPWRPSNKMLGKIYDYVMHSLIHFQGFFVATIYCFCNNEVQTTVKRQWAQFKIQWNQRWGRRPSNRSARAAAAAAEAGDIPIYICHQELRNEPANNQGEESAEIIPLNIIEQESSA
T1 sequence (looked up) 2: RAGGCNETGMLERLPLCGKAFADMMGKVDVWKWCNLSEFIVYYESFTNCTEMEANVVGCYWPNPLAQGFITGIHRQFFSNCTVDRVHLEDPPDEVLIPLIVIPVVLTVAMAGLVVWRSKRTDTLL


molecular target: T1, human amylin receptor (amylin 3(a) …); assay: SPA displacement of 125I-rat amylin, hAmylin 3(a) receptor membranes
How it was run: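 SPA beads + BHK amylin 3(a)/CRE-luc membranes, 35 ng/μL final; buffer 50 mM Hepes pH 7.4, 1 mM CaCl2, 5 mM MgCl₂, 0.1% OA, 0.02% Tween20. 120 min, 25° C, shaken; scintillation count. IC₅₀ by one-site binding competition fit, taken as receptor affinity.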

| IC50 [nM] | Binder |
| --- | --- |
| 0.03 | K([AEEA-γGlu-C20 diacid])CNTATCATQRLANFLRHSSPNFGAIPSPTPVGSNTY-NH2 (disulfide 2-7; N-terminus assumed; SMILES CC[C@H](C)[C@H](NC(=O)[C@H](C)NC(=O)CNC(=O)[C@H](Cc1ccccc1)NC(=O)[C@H](CC(N)=O)NC(=O)[C@@H]1CCCN1C(=O)[C@H](CO)NC(=O)[C@H](CO)NC(=O)[C@H](Cc1c[nH]cn1)NC(=O)[C@H](CCCNC(=N)N)NC(=O)[C@H](CC(C)C)NC(=O)[C@H](Cc1ccccc1)NC(=O)[C@H](CC(N)=O)NC(=O)[C@H](C)NC(=O)[C@H](CC(C)C)NC(=O)[C@H](CCCNC(=N)N)NC(=O)[C@H](CCC(N)=O)NC(=O)[C@@H](NC(=O)[C@H](C)NC(=O)[C@@H]1CSSC[C@H](NC(=O)[C@@H](N)CCCCNC(=O)COCCOCCNC(=O)CC[C@H](NC(=O)CCCCCCCCCCCCCCCCCCC(=O)O)C(=O)O)C(=O)N[C@@H](CC(N)=O)C(=O)N[C@@H]([C@@H](C)O)C(=O)N[C@@H](C)C(=O)N[C@@H]([C@@H](C)O)C(=O)N1)[C@@H](C)O)C(=O)N1CCC[C@H]1C(=O)N[C@@H](CO)C(=O)N1CCC[C@H]1C(=O)N[C@H](C(=O)N1CCC[C@H]1C(=O)N[C@H](C(=O)NCC(=O)N[C@@H](CO)C(=O)N[C@@H](CC(N)=O)C(=O)N[C@H](C(=O)N[C@@H](Cc1ccc(O)cc1)C(N)=O)[C@@H](C)O)C(C)C)[C@@H](C)O, also called 54; compound 54) |
| 0.038 | K([AEEA-γGlu-C20 diacid])CNTATCATQRLANFLRHSSPNFGAIPSSTNVGPNTY-NH2 (disulfide 2-7; N-terminus assumed; SMILES CC[C@H](C)[C@H](NC(=O)[C@H](C)NC(=O)CNC(=O)[C@H](Cc1ccccc1)NC(=O)[C@H](CC(N)=O)NC(=O)[C@@H]1CCCN1C(=O)[C@H](CO)NC(=O)[C@H](CO)NC(=O)[C@H](Cc1c[nH]cn1)NC(=O)[C@H](CCCNC(=N)N)NC(=O)[C@H](CC(C)C)NC(=O)[C@H](Cc1ccccc1)NC(=O)[C@H](CC(N)=O)NC(=O)[C@H](C)NC(=O)[C@H](CC(C)C)NC(=O)[C@H](CCCNC(=N)N)NC(=O)[C@H](CCC(N)=O)NC(=O)[C@@H](NC(=O)[C@H](C)NC(=O)[C@@H]1CSSC[C@H](NC(=O)[C@@H](N)CCCCNC(=O)COCCOCCNC(=O)CC[C@H](NC(=O)CCCCCCCCCCCCCCCCCCC(=O)O)C(=O)O)C(=O)N[C@@H](CC(N)=O)C(=O)N[C@@H]([C@@H](C)O)C(=O)N[C@@H](C)C(=O)N[C@@H]([C@@H](C)O)C(=O)N1)[C@@H](C)O)C(=O)N1CCC[C@H]1C(=O)N[C@@H](CO)C(=O)N[C@@H](CO)C(=O)N[C@H](C(=O)N[C@@H](CC(N)=O)C(=O)N[C@H](C(=O)NCC(=O)N1CCC[C@H]1C(=O)N[C@@H](CC(N)=O)C(=O)N[C@H](C(=O)N[C@@H](Cc1ccc(O)cc1)C(N)=O)[C@@H](C)O)C(C)C)[C@@H](C)O, also called 50; compound 50) |
| 0.049 | K([AEEA-γGlu-C20 diacid])CNTATCATQRLANFLRHSSPNFGAIPSPTNVGPNTY-NH2 (disulfide 2-7; N-terminus assumed; SMILES CC[C@H](C)[C@H](NC(=O)[C@H](C)NC(=O)CNC(=O)[C@H](Cc1ccccc1)NC(=O)[C@H](CC(N)=O)NC(=O)[C@@H]1CCCN1C(=O)[C@H](CO)NC(=O)[C@H](CO)NC(=O)[C@H](Cc1c[nH]cn1)NC(=O)[C@H](CCCNC(=N)N)NC(=O)[C@H](CC(C)C)NC(=O)[C@H](Cc1ccccc1)NC(=O)[C@H](CC(N)=O)NC(=O)[C@H](C)NC(=O)[C@H](CC(C)C)NC(=O)[C@H](CCCNC(=N)N)NC(=O)[C@H](CCC(N)=O)NC(=O)[C@@H](NC(=O)[C@H](C)NC(=O)[C@@H]1CSSC[C@H](NC(=O)[C@@H](N)CCCCNC(=O)COCCOCCNC(=O)CC[C@H](NC(=O)CCCCCCCCCCCCCCCCCCC(=O)O)C(=O)O)C(=O)N[C@@H](CC(N)=O)C(=O)N[C@@H]([C@@H](C)O)C(=O)N[C@@H](C)C(=O)N[C@@H]([C@@H](C)O)C(=O)N1)[C@@H](C)O)C(=O)N1CCC[C@H]1C(=O)N[C@@H](CO)C(=O)N1CCC[C@H]1C(=O)N[C@H](C(=O)N[C@@H](CC(N)=O)C(=O)N[C@H](C(=O)NCC(=O)N1CCC[C@H]1C(=O)N[C@@H](CC(N)=O)C(=O)N[C@H](C(=O)N[C@@H](Cc1ccc(O)cc1)C(N)=O)[C@@H](C)O)C(C)C)[C@@H](C)O, also called 56; compound 56) |
| 0.115 | K([AEEA-γGlu-C20 diacid])CNTATCATQRLANFLRHSSPNFGAIPSSTPVGSHTY-NH2 (disulfide 2-7; N-terminus assumed; SMILES CC[C@H](C)[C@H](NC(=O)[C@H](C)NC(=O)CNC(=O)[C@H](Cc1ccccc1)NC(=O)[C@H](CC(N)=O)NC(=O)[C@@H]1CCCN1C(=O)[C@H](CO)NC(=O)[C@H](CO)NC(=O)[C@H](Cc1c[nH]cn1)NC(=O)[C@H](CCCNC(=N)N)NC(=O)[C@H](CC(C)C)NC(=O)[C@H](Cc1ccccc1)NC(=O)[C@H](CC(N)=O)NC(=O)[C@H](C)NC(=O)[C@H](CC(C)C)NC(=O)[C@H](CCCNC(=N)N)NC(=O)[C@H](CCC(N)=O)NC(=O)[C@@H](NC(=O)[C@H](C)NC(=O)[C@@H]1CSSC[C@H](NC(=O)[C@@H](N)CCCCNC(=O)COCCOCCNC(=O)CC[C@H](NC(=O)CCCCCCCCCCCCCCCCCCC(=O)O)C(=O)O)C(=O)N[C@@H](CC(N)=O)C(=O)N[C@@H]([C@@H](C)O)C(=O)N[C@@H](C)C(=O)N[C@@H]([C@@H](C)O)C(=O)N1)[C@@H](C)O)C(=O)N1CCC[C@H]1C(=O)N[C@@H](CO)C(=O)N[C@@H](CO)C(=O)N[C@H](C(=O)N1CCC[C@H]1C(=O)N[C@H](C(=O)NCC(=O)N[C@@H](CO)C(=O)N[C@@H](Cc1c[nH]cn1)C(=O)N[C@H](C(=O)N[C@@H](Cc1ccc(O)cc1)C(N)=O)[C@@H](C)O)C(C)C)[C@@H](C)O, also called 57; compound 57) |
| 1.19 | K([AEEA-γGlu-C20 diacid])CNTATCATQRLANFLRHSSPNFGAIPSSTPVGSNTY-NH2 (disulfide 2-7; N-terminus assumed; SMILES CC[C@H](C)[C@H](NC(=O)[C@H](C)NC(=O)CNC(=O)[C@H](Cc1ccccc1)NC(=O)[C@H](CC(N)=O)NC(=O)[C@@H]1CCCN1C(=O)[C@H](CO)NC(=O)[C@H](CO)NC(=O)[C@H](Cc1c[nH]cn1)NC(=O)[C@H](CCCNC(=N)N)NC(=O)[C@H](CC(C)C)NC(=O)[C@H](Cc1ccccc1)NC(=O)[C@H](CC(N)=O)NC(=O)[C@H](C)NC(=O)[C@H](CC(C)C)NC(=O)[C@H](CCCNC(=N)N)NC(=O)[C@H](CCC(N)=O)NC(=O)[C@@H](NC(=O)[C@H](C)NC(=O)[C@@H]1CSSC[C@H](NC(=O)[C@@H](N)CCCCNC(=O)COCCOCCNC(=O)CC[C@H](NC(=O)CCCCCCCCCCCCCCCCCCC(=O)O)C(=O)O)C(=O)N[C@@H](CC(N)=O)C(=O)N[C@@H]([C@@H](C)O)C(=O)N[C@@H](C)C(=O)N[C@@H]([C@@H](C)O)C(=O)N1)[C@@H](C)O)C(=O)N1CCC[C@H]1C(=O)N[C@@H](CO)C(=O)N[C@@H](CO)C(=O)N[C@H](C(=O)N1CCC[C@H]1C(=O)N[C@H](C(=O)NCC(=O)N[C@@H](CO)C(=O)N[C@@H](CC(N)=O)C(=O)N[C@H](C(=O)N[C@@H](Cc1ccc(O)cc1)C(N)=O)[C@@H](C)O)C(C)C)[C@@H](C)O, also called 49; compound 49) |
| 0.088 | K([AEEA-γGlu-C20 diacid])CNTATCATQRLANFLRHSSPNFGAIPSSTNVGPHTY-NH2 (disulfide 2-7; N-terminus assumed; SMILES CC[C@H](C)[C@H](NC(=O)[C@H](C)NC(=O)CNC(=O)[C@H](Cc1ccccc1)NC(=O)[C@H](CC(N)=O)NC(=O)[C@@H]1CCCN1C(=O)[C@H](CO)NC(=O)[C@H](CO)NC(=O)[C@H](Cc1c[nH]cn1)NC(=O)[C@H](CCCNC(=N)N)NC(=O)[C@H](CC(C)C)NC(=O)[C@H](Cc1ccccc1)NC(=O)[C@H](CC(N)=O)NC(=O)[C@H](C)NC(=O)[C@H](CC(C)C)NC(=O)[C@H](CCCNC(=N)N)NC(=O)[C@H](CCC(N)=O)NC(=O)[C@@H](NC(=O)[C@H](C)NC(=O)[C@@H]1CSSC[C@H](NC(=O)[C@@H](N)CCCCNC(=O)COCCOCCNC(=O)CC[C@H](NC(=O)CCCCCCCCCCCCCCCCCCC(=O)O)C(=O)O)C(=O)N[C@@H](CC(N)=O)C(=O)N[C@@H]([C@@H](C)O)C(=O)N[C@@H](C)C(=O)N[C@@H]([C@@H](C)O)C(=O)N1)[C@@H](C)O)C(=O)N1CCC[C@H]1C(=O)N[C@@H](CO)C(=O)N[C@@H](CO)C(=O)N[C@H](C(=O)N[C@@H](CC(N)=O)C(=O)N[C@H](C(=O)NCC(=O)N1CCC[C@H]1C(=O)N[C@@H](Cc1c[nH]cn1)C(=O)N[C@H](C(=O)N[C@@H](Cc1ccc(O)cc1)C(N)=O)[C@@H](C)O)C(C)C)[C@@H](C)O, also called 58; compound 58) |
